The record followed here is patent US20220073617A1 (Five Prime, published 2022).

The term Kd denotes a measure of binding affinity in units of concentration. A higher Kd goes with a looser complex. As a reminder, the koff is a measure of how fast the partners let go of each other. Low values mean slow dissociation, high ones fast dissociation. For orientation: kon means the second-order rate constant of association. Low values mean slower complex formation, high ones faster complex formation.

Some results are limits rather than exact numbers.

In assay [1] the target is T1, monovalent hVISTA-ECD (amino acids 32-193 of SEQ ID NO: 1 with a 7xHis tail) (human, UniProt Q9H7M9 33-193).
T1 construct: analyte of the SPR assays; also called huVISTA-His; hVISTA-His
The assay is described as follows: SPR 37C, 100 nM hVISTA-ECD, pH 7.4, 6.7, 6.0.

The target in assay [2] is T2, human VISTA on cells (human monocytes, AML3 cells, 293T/HEK293 cells expressing full-length human VISTA) (human, UniProt Q9H7M9 33-311).
T2 sequence: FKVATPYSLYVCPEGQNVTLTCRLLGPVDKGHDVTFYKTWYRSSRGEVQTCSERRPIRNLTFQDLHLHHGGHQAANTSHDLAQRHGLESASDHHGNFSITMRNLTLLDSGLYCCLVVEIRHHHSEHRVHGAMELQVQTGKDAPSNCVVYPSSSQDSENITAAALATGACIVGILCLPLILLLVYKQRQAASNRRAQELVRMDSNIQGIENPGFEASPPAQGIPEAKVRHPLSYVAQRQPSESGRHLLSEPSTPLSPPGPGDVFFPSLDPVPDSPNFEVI
Put plainly: cell-based or functional assay.

Assay [3] concerns the target T3, cyno VISTA-ECD (His tag) (cynomolgus macaque, UniProt Q9H7M9 33-193 (human entry)).
T3 construct: also called cyVISTA-His
T3 chain: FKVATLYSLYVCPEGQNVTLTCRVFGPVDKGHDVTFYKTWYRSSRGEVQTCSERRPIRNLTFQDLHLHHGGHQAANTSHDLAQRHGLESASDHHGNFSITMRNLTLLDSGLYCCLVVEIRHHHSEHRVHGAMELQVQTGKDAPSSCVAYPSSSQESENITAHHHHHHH
The assay is described as follows: SPR 37C.

The target of assay [4] is T1, monovalent hVISTA-ECD (amino acids …). The assay is described as follows: SPR 37C.
The target in assay [5] is T4, avidin (ThermoFisher Scientific catalog #21128) (UniProt P02701 25-152). The assay is described as follows: SPR 25C pH 6.0 and 7.4. The procedure:
(§1) The binding specificity of the '029, '761 and '767 clones to VISTA and to other high pI proteins was evaluated by SPR at neutral and acidic pH using a Biacore® T100 instrument (GE Healthcare). Protein A (ThermoFisher Scientific catalog #21181) was diluted to 20 ug/ml in 10 mM sodium acetate pH 4.5 and immobilized onto flow cells of a CM3 biosensor following the manufacturer's amine coupling protocol (GE Healthcare), targeting 800 RU immobilization density of Protein A per flow cell. SPR experiments were conducted at 25° C. using PBST (137 mM sodium chloride, 2.7 mM potassium chloride, 10 mM phosphate buffer, 0.05% Tween 20) running buffer at pH 7.4 and 6.0. Antibodies (formatted as IgG1.3 antibodies) were diluted to 50 nM in PBST pH 7.4, and were captured across active biosensor flow cells at 5 ul/min for 60 seconds. […] Two 15 second injections of 10 mM glycine pH 1.5 were used to regenerate the Protein A capture surface between assay cycles. Reference flow cell and 0 nM blank-subtracted sensorgrams were inspected using Biacore® T200 Evaluation Software v.2.0. The results are shown in […]

Assay [6] deals with BSA (Calbiochem catalog #126593) (UniProt P02769 25-607). Put plainly: SPR 25C pH 6.0 and 7.4. The procedure: as §1
Sequence of BSA (Calbiochem catalog #126593) (P02769 25-607 limits assumed): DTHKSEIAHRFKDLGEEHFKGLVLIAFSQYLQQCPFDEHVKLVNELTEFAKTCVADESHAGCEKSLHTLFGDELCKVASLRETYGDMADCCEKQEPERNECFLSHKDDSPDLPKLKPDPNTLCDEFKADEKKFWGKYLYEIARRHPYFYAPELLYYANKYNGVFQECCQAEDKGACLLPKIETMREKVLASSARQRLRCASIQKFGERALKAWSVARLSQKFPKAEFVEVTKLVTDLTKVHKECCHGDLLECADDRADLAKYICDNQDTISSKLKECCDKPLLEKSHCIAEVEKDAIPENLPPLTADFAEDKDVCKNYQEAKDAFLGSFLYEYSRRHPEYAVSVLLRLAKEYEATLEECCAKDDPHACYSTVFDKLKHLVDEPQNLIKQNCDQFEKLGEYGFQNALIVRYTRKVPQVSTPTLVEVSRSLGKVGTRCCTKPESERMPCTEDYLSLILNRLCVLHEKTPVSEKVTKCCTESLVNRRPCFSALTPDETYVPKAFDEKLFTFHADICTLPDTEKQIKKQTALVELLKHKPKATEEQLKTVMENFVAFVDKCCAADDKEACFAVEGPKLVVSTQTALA
In assay [7] the target is T3, cyno VISTA-ECD (His tag). The assay is described as follows: SPR 37C pH 7.4.
Assay [8] concerns the target T1, monovalent hVISTA-ECD (amino acids …). The assay is described as follows: SPR 37C pH 7.4.
The target in assay [9] is T5, human VISTA-Fc (hVISTA extracellular domain, amino acids 33-194 of SEQ ID NO: 1, linked to an Fc domain) (human, UniProt Q9H7M9 33-194).
T5 construct: also called WT VISTA; hVISTAFc
T5 sequence: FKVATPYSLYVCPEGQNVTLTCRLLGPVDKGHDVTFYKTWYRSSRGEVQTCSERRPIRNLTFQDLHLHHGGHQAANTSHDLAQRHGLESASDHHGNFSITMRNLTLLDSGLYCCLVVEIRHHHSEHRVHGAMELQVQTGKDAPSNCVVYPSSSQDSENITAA
The assay is described as follows: BLI. A general note: Biolayer interferometry detects binding as a change in optical thickness at a sensor tip.

For assay [10], the target named is T3, cyno VISTA-ECD (His tag). Put plainly: SPR 37C pH 6.0.
The target in assay [11] is T1, monovalent hVISTA-ECD (amino acids …). The assay is described as follows: SPR 37C pH 6.0.
The target is the same in assay [12]. The assay is described as follows: SPR 37C. The procedure: For this assay, '029, '761 and '767 were reformatted as hIgG1f isotype and were expressed as both standard hIgG1f and in hIgG1f afucosylated formats to compare against the hIgG1.3f Fc. An SPR kinetics assay was conducted to measure koff and KD binding affinity measurements for VISTA Abs at acidic and physiological pH using a Biacore® T100 instrument (GE Healthcare). Protein A (ThermoFisher Scientific catalog #21181) was diluted to 20 μg/ml in 10 mM sodium acetate pH 4.5 and immobilized onto flow cells of a CM5 biosensor following the manufacturer's amine coupling protocol (GE Healthcare), targeting 2,000 RU immobilization density of Protein A per flow cell. […] Antibodies were diluted to 25 nM in PBST pH 7.4, and were captured across active biosensor flow cells at 5 ul/min for 45 seconds. […] Two 15 second injections of 10 mM glycine pH 1.5 were used to regenerate the Protein A capture surface between assay cycles. Rate constants ka (kₒₙ) and kd (koff) were derived from reference flow cell and 0 nM blank-subtracted sensorgrams, and were fit to a 1:1 binding model in Biacore® T200 Evaluation Software v.2.0. The affinity constant, KD was calculated as the ratio of rate constants koff/kₒₙ for each VISTA antibody. Ratios of koff and KD at pH 7.4/pH 6.0 were calculated to compare off-rate and affinity improvement at acidic pH relative to physiological pH.
This is another data set of the same source.

Assay [13] addresses T4, avidin (ThermoFisher Scientific catalog …). The assay is described as follows: SPR pH 6.0 and 7.4.
For assay [14], the target named is T1, monovalent hVISTA-ECD (amino acids …). The assay is described as follows: SPR (FIG. 19C).

T4 sequence (P02701 25-152 limits assumed): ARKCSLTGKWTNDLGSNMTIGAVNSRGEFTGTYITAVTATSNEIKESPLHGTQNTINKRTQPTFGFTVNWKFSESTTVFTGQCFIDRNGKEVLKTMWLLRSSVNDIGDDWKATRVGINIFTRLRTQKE

B1: VISTA.5 (VISTA antibody 1, non-blocking antibody) (antibody, V domains shown)
VH: AVQLQESGPGLVRPSQSLSLTCTVTDYSITSDYAWNWIRQFPGSKLEWLGFIGYSGNTNYNPSLESRISITRHTSKNQFFLHLNSMTTEDTATYYCARSLYGGSHWYFDVWGAGTTVTVSS
VL: DIVLTQSPASLAVSLGQRATISCRGSESVEYYGTILMQWYQQKPGQPPKLLIYGASNVESGVPARFSGSGSGTDFSLNIHPVEEDDIAMYFCQQSRKVPWTFGGGTKLEIK
notes: also called VISTA mAb 1; mAb 1
Turning to B1, in assay [1], the binding result is “binds”. Moreover, in assay [2], the “EC50, AML3 viability (Cell Titer Glo), endolysosome-dependent antibody drug conjugate killing assay” value was determined as 0.485 µg/mL.

B2: P1-061029.IgG1.3 (antibody)
heavy: EVQLVESGGGLVQPGKSLRLSCAASGFTLDDYAMHWVRQAPGKGLEWVSGINWNSANIGYADSVKGRFTISRDNAKNSLYLQMNSLRTEDTALYYCAKVPGYSGGWIDAFDVWGQGTMVTVSSASTKGPSVFPLAPSSKSTSGGTAALGCLVKDYFPEPVTVSWNSGALTSGVHTFPAVLQSSGLYSLSSVVTVPSSSLGTQTYICNVNHKPSNTKVDKRVEPKSCDKTHTCPPCPAPEAEGAPSVFLFPPKPKDTLMISRTPEVTCVVVDVSHEDPEVKFNWYVDGVEVHNAKTKPREEQYNSTYRVVSVLTVLHQDWLNGKEYKCKVSNKALPAPIEKTISKAKGQPREPQVYTLPPSREEMTKNQVSLTCLVKGFYPSDIAVEWESNGQPENNYKTTPPVLDSDGSFFLYSKLTVDKSRWQQGNVFSCSVMHEALHNHYTQKSLSLSPG
light: not shown
notes: also called P1-061029 hIgG1.3f; parent
For the molecule B2, the entries for the “KD ratio (7.4/6)” value in assay [3] and in assay [4] were 4.7 and 9.1, respectively. Moreover, the “kd ratio (7.4/6)” value in assay [3] and in assay [4] was 1.1 in each case. Moreover, the binding result in [5] was “no binding (tested: <=10 RU, 100-10 nM)”; in assay [6] it was “no binding (tested: <=10 RU, 100-10 nM)”; in [9] it was “binds”. Also, the dissociation constant Kd in assay [7] came to 47 nM; in assay [8], 62 nM; in assay [10] it was 10 nM; in assay [11], 6.8 nM. Besides, the off-rate constant (koff) in assay [7] was 0.0067 s⁻¹; in assay [8], 0.0075 s⁻¹; in assay [10], 0.0062 s⁻¹; in [11], 0.0066 s⁻¹. In addition, the on-rate (kon) in [7] amounted to 140000 M⁻¹ s⁻¹; in assay [8] it was 120000 M⁻¹ s⁻¹; in assay [10], 620000 M⁻¹ s⁻¹; in [11], 980000 M⁻¹ s⁻¹.

B3: P1-068761.IgG1.3 (antibody)
heavy: EVQLVESGGGLVQPGKSLRLSCAASGFTLEDEAMHWVRQAPGKGLEWVSGINWNSEEIGYADSVKGRFTISRDNAKNSLYLQMNSLRTEDTALYYCAKVPGYSHGWIDAEDVWGQGTMVTVSSASTKGPSVFPLAPSSKSTSGGTAALGCLVKDYFPEPVTVSWNSGALTSGVHTFPAVLQSSGLYSLSSVVTVPSSSLGTQTYICNVNHKPSNTKVDKRVEPKSCDKTHTCPPCPAPEAEGAPSVFLFPPKPKDTLMISRTPEVTCVVVDVSHEDPEVKFNWYVDGVEVHNAKTKPREEQYNSTYRVVSVLTVLHQDWLNGKEYKCKVSNKALPAPIEKTISKAKGQPREPQVYTLPPSREEMTKNQVSLTCLVKGFYPSDIAVEWESNGQPENNYKTTPPVLDSDGSFFLYSKLTVDKSRWQQGNVFSCSVMHEALHNHYTQKSLSLSPG
light: not shown
notes: also called P1-068761 hIgG1.3f
With B3, in [3], the “KD ratio (7.4/6)” value is 696 and the “kd ratio (7.4/6)” value came out at 21.2. For the same molecule, in assay [4], the “KD ratio (7.4/6)” value was 2120 and the “kd ratio (7.4/6)” value was 26.4. In addition, in [5], the binding result was “no binding (tested: <=10 RU, 100-10 nM)”. Moreover, the binding result in assay [6] is given as “no binding (tested: <=10 RU, 100-10 nM)”. Moreover, in [12], the “fold faster koff at pH 6.9 compared to pH 6.0” value was at least 10 fold, the “fold lower affinity at pH 6.45 compared to pH 6.0” value was at least 10 fold, the “fold lower affinity at pH 6.9 compared to pH 6.0” value was at least 100 fold and the “fold lower affinity at pH 7.4 compared to pH 6.0” value was at least 1000 fold. Moreover, in assay [12], the “fold weaker KD at pH 6.9 compared to pH 6.0” value was at least 100 fold, the “selectivity for pH 6 over pH 7.4 in KD” value was above 2000 fold and the “selectivity for pH 6 over pH 7.4 in koff” value is above 10 fold. In assay [7], the affinity, expressed as Kd, was 5500 nM; the dissociation rate constant (koff) was found to be 0.036 s⁻¹; the on-rate (kon) worked out at 6500 M⁻¹ s⁻¹. In assay [8], this molecule came in with a Kd of 8700 nM, a koff of 0.037 s⁻¹ and a kon of 4300 M⁻¹ s⁻¹. In assay [10], this molecule displayed a Kd of 7.9 nM, an off-rate (koff) of 0.0017 s⁻¹ and a kon of 210000 M⁻¹ s⁻¹. Moreover, in assay [11], the dissociation constant (Kd) was 4.1 nM and the on-rate (kon) turned out to be 350000 M⁻¹ s⁻¹.

B4: VISTA.4.IgG1.3 (antibody, V domains shown)
VH: QVQLVESGGGLVKPGGSLRLSCAASGFTFSDYYMSWIRQAPGKGLEWVSYISNSGSPIYYADSVKGRFTISRDNAKNSLYLQMNSLRAEDTAVYYCARDLPGWYFDLWGRGTLVTVSS
VL: EIVLTQSPATLSLSPGERATLSCRASQSVSSYLAWYQQKPGQAPRLLIYDASNRATGIPARFSASGSGTDFTLTISSLEPEDFAVYYCQQRNNWPRTFGQGTKVEIKR
notes: also called 41F11
With B4, the binding result in assay [13] is “no binding”.

B5: P1-072315-1 (41F11_VH_T28P/Y50W/S55E/L96E/Y100E VK_A64G) (antibody, V domains shown)
VH: QVQLVESGGGLVKPGGSLRLSCAASGFPFSDYYMSWIRQAPGKGLEWVSWISNSGEPIYYADSVKGRFTISRDNAKNSLYLQMNSLRAEDTAVYYCARDEPGWEFDLWGRGTLVTVSS
VL: EIVLTQSPATLSLSPGERATLSCRASQSVSSYLAWYQQKPGQAPRLLIYDASNRATGIPARFSGSGSGTDFTLTISSLEPEDFAVYYCQQRNNWPRTFGQGTKVEIK
On to B5, for which the binding result in assay [13] is listed as “no binding”.

B6: P1-070976 (41F11_VH_T28P/Y50W/S55E/D95H/L96E/P97E/Y100E; VK_A64G), IgG1.3 (antibody, V domains shown)
VH: QVQLVESGGGLVKPGGSLRLSCAASGFPFSDYYMSWIRQAPGKGLEWVSWISNSGEPIYYADSVKGRFTISRDNAKNSLYLQMNSLRAEDTAVYYCARHEEGWEFDLWGRGTLVTVSS
VL: EIVLTQSPATLSLSPGERATLSCRASQSVSSYLAWYQQKPGQAPRLLIYDASNRATGIPARFSGSGSGTDFTLTISSLEPEDFAVYYCQQRNNWPRTFGQGTKVEIKR
notes: also called acidic pH selective VISTA.4 progeny
In the case of B6, the “fold higher affinity at pH 6.0 than at pH 7.4” value in assay [14] is 200 fold. In addition, the binding result in assay [13] was “no binding”.
